Source: patent publication US20240317865A1 (MOMENTA PHARMACEUTICALS, published 2024)
Values belong to the binder of their own block, whether it stands above or below them.

Legend:
[1] = target: T1, α11β1 on human myofibroblasts (MF) (human, UniProt Q9UKX5 23-1188; P05556 21-798); assay: FACS (PE) on human myofibroblasts, histogram
T1 construct: whole, on cells; Human pulmonary fibroblasts treated with TGFβ

[2] = target: T2, recombinant human integrin alpha 11 beta 1 (α11β1) (human, UniProt Q9UKX5 23-1141; P05556 21-728); assay: ELISA on plate-coated recombinant human α11β1, OD 450nm
T2 construct: Coated in ELISA; also called human α11β1; soluble human α11β1
T2 sequence (Q9UKX5 23-1141 limits assumed, chain 1 of 2): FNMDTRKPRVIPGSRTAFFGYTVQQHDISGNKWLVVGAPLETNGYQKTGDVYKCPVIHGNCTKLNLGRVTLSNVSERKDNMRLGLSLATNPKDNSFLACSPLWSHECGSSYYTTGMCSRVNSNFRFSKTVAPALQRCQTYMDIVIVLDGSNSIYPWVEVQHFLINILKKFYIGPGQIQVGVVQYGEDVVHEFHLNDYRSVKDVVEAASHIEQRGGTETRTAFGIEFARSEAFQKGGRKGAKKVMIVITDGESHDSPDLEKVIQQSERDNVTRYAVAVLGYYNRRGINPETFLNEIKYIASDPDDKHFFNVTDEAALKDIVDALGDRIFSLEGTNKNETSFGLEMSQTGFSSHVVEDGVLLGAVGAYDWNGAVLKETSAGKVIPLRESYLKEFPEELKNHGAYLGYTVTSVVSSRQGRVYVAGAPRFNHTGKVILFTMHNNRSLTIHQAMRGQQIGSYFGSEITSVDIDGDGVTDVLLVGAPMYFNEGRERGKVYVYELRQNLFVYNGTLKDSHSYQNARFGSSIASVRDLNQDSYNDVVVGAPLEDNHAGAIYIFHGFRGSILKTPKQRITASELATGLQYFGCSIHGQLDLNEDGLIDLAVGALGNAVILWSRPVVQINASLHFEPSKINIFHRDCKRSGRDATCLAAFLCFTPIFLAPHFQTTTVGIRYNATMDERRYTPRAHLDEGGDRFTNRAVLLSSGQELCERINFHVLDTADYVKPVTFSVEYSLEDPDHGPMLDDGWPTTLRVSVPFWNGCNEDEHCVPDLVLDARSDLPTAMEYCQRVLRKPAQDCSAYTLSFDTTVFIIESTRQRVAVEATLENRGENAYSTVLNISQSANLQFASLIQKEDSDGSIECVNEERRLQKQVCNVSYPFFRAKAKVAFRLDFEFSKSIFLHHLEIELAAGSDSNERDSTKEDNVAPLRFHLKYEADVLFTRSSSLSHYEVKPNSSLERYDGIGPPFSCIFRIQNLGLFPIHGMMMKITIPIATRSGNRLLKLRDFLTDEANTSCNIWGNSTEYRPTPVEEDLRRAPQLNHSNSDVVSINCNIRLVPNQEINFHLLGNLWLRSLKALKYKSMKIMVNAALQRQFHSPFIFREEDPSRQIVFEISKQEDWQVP
T2 sequence (P05556 21-728 limits assumed, chain 2 of 2): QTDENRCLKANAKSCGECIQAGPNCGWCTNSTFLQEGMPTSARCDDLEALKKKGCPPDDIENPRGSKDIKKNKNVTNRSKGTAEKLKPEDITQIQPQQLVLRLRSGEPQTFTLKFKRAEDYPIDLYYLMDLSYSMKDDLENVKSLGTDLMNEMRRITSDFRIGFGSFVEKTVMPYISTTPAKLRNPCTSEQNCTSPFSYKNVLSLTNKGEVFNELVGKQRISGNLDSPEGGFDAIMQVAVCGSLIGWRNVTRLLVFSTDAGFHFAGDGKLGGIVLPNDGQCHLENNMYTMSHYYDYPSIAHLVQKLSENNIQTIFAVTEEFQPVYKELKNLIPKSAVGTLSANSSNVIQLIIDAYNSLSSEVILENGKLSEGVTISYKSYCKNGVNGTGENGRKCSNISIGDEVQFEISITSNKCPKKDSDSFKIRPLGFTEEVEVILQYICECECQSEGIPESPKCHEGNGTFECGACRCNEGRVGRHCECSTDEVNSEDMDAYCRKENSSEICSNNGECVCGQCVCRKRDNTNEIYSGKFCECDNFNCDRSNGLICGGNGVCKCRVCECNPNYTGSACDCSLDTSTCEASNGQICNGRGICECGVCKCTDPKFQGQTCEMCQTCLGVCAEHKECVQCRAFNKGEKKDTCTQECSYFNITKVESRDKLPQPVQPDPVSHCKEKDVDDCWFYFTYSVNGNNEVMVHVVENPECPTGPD
Procedure: 0.25 μg/mL of target antigen (recombinant human or mouse α11β1) was plated in a 96-well plate over night at 4° C. Plates were washed (PBS with 0.1% Tween-20), blocked (PBS with 2% BSA and 0.05% Tween-20) for 1 hour at room temperature and incubated with a range of antibody concentrations for 1 hour at room temperature. Subsequently, plates were washed and incubated with biotinylated anti-rabbit/mouse/human IgG in a 1:1000 dilution buffer and incubated for 1 hour at room temperature. After washing the plates, Streptavidin HRP was added at 1:200 in dilution buffer and incubated for 1 hour at room temperature. Ultra TMB ELISA substrate solution was added and the plates incubated for 5 minutes on a plate shaker. The reaction was stopped by adding stop solution to each well and plates were read at 450 nm.

[3] = target: T2, recombinant human integrin alpha 11 …; assay: SPR (Biacore T200), HIS-tagged human α11β1 captured by anti-HIS antibody, single-cycle kinetics, 1:1 Langmuir fit
Procedure: The affinity of antibodies for human α11β1 was measured by surface plasmon resonance assay (SPR). Affinity was measured at pH 7.6 and 25° C. with a Biacore T200 instrument. Anti-HIS antibody was immobilized on the SPR sensor surface using EDC/NHS covalent attachment. HIS-tagged human α11β1 was captured on the sensor surface and a single-cycle kinetics assay was used. Increasing concentrations of test antibody were injected in series over the sensor-bound α11β1. Dissociation was monitored for 1000 seconds. A sensor surface with only anti-HIS antibody and a series of blank injections were used to double-reference subtract the data. A 1:1 Langmuir model was fit to the data to estimate the kinetic association and dissociation constants. The affinity (equilibrium dissociation constant) of the interaction was calculated by dividing the kinetic dissociation constant by the kinetic association constant. Between injection cycles α11β1 and bound antibody were removed with an injection of 10 mM glycine at pH 1.5.
The binding affinity of antibodies for the α11β1 Headpiece and α11β1 I Domain as measured by SPR is shown in FIG. 10A and FIG. 10B, respectively.

[4] = target: α11β1 on CHO-K1 cells stably expressing human α11 (CHO-K1 hu α11) (human, UniProt Q9UKX5 23-1188); assay: cell-based or functional assay
Chain of α11β1 on CHO-K1 cells stably expressing human α11 (CHO-K1 hu α11) (Q9UKX5 23-1188): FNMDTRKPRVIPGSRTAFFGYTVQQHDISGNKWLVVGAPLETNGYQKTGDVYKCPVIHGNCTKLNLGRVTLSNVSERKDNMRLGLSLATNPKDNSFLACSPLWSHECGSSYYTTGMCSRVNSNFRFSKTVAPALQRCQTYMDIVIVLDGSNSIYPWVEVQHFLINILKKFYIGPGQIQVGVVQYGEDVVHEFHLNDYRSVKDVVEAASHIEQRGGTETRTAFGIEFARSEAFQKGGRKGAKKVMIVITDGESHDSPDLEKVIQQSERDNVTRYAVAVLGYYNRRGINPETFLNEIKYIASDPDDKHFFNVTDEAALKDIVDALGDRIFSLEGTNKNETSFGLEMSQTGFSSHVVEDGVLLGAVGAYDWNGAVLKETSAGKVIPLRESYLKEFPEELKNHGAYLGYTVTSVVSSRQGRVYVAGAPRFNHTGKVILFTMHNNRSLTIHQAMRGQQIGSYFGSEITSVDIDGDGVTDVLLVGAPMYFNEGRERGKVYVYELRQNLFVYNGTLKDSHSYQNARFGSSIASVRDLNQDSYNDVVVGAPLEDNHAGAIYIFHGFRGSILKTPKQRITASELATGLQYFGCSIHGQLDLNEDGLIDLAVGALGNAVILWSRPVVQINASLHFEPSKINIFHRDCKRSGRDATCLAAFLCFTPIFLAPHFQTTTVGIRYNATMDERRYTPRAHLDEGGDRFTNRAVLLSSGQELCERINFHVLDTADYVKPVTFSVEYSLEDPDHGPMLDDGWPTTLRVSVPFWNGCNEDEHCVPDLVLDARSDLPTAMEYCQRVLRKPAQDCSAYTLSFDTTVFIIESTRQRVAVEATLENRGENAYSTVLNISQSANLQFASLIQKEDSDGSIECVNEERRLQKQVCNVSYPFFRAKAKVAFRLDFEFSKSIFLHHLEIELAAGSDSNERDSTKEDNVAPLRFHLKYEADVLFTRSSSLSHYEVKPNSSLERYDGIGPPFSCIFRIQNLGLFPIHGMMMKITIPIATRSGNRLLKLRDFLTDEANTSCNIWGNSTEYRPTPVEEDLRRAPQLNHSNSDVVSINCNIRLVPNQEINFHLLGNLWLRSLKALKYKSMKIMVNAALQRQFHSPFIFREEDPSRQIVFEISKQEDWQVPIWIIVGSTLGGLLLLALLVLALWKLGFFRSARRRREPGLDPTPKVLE

T1 sequence (Q9UKX5 23-1188, chain 1 of 2): as the sequence (Q9UKX5 23-1188) above
T1 sequence (P05556 21-798, chain 2 of 2): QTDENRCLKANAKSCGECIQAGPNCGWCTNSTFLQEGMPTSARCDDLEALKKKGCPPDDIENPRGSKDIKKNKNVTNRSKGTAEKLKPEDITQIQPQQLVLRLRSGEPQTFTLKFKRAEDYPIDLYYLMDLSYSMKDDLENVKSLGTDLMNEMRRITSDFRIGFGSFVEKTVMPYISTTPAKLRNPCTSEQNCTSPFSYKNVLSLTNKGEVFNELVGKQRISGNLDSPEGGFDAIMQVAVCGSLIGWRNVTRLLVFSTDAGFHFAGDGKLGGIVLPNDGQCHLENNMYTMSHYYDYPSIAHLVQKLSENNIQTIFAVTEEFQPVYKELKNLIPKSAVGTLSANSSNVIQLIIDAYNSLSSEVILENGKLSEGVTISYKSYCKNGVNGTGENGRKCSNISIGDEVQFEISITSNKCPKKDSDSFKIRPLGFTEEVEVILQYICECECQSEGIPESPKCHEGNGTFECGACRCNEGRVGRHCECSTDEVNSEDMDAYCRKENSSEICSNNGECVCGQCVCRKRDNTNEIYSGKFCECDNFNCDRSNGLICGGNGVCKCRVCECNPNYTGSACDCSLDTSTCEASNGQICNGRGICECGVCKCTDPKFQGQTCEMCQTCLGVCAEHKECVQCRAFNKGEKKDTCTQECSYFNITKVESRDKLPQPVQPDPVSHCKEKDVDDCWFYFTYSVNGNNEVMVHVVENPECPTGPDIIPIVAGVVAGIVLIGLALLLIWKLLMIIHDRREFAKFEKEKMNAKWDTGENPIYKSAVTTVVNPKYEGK

- binding result [1]: binds
- binding result [2]: binds
B1: 8-J17 (antibody, V domains shown)
VH: QVQLQQSGAELAKPGASVKMSCKASGYTFTNYWMHWVKQRPGQGLEWIGYINPNNGYTEYNQRFKDKATLTADRSSTTAYMQLSSLTSEDSAVYYCARSDIITTDYWGQGTTLTVSS
VL: DVVMTQTPLSLPVSLGDQASISCRSSQSLVYSNGNTYLHWYLQKPGQSPKLLIYKVSNRFSGVPDRFSGSGSGTDFTLKISRVEAEDLGVYFCSQSTHVPWTFGGGTKLEIK
notes: mouse hybridoma IgG

- koff [3]: 0.000224 s⁻¹
- kon [3]: 4.68e+06 M⁻¹ s⁻¹
- IC50, inhibition of adhesion of CHO-α11 cells to type I collagen, dose curve [4]: 390 pM
B2: A11B1_16E10 (antibody, V domains shown)
VH: QSLEESGGDLVKPGASLTLTCRVSGFSFSSSYYMCWVRQAPGKGLEWIACIGTTRGSTYYATWAKGRFTISKISSTTVTLQMTSLTDADTATYFCARDATGYRINTIGLYFNLWGPGTLVTVSS
VL: AFELTQTPSSVEAAVGGTPTIKCQASQTIYSYLSWYQQKPGQPPKLLIYEASKLASGVPSRFSGSGSGTDYTLTISDLECADAATYYCQSYHGTASTEYNTFGGGTEVVVRG
notes: rabbit monoclonal, recombinantly produced in HEK cells; full chains
